This note sets out measurements from patent US20030100489A1 (COLD SPRING HARBOR LABORATORY, published 2003).

For test [1], the target named is T1, CDK4 Arg24-Cys mutant (Homo sapiens (Human), UniProt P11802 1-303).
T1 construct: Found in cells from a melanoma patient; also called mutant CDK4; Arg→Cys mutant of CDK4
Put plainly: immunoprecipitation from mixed Sf9 lysates.

Test [2] has as its target T2, cdc2 (human, UniProt P06493 1-297).
T2 construct: Untagged: 35S-labelled in vitro translated, or endogenous in HaCaT human keratinocytes; also called CDK1
The test can be described thus: anti-CDC2 immunoprecipitation from TGF-β arrested human keratinocytes.

The target of test [3] is CDK2 (human, UniProt P24941 1-298). Put plainly: anti-CDK2 immunoprecipitation from TGF-β arrested human keratinocytes.
Test [4] addresses T3, GAL4db-cdc2 fusion (UniProt P04386 1-147; P06493 1-297, limits assumed).
T3 construct: Two-hybrid construct; also called GALAdb fusion construct containing cdc2
The test can be described thus: yeast two-hybrid (HIS3 growth and beta-galactosidase) in YPB2. As to the method: (§1) Transformed cells were plated with and without histidine.
(§2) After growing cells in medium selective for both plasmids (minus tryptophan and minus leucine), two colonies were picked randomly and were streaked in plates that either contained or lacked histidine.

For test [5], the target named is T4, GAL4db-CDK2 fusion (UniProt P04386 1-147; P24941 1-298, limits assumed).
T4 construct: Two-hybrid construct; also called GALAdb fusion construct containing CDK2
Described as above. The method, then: as §1, §2

Test [6] deals with T5, GAL4db-CDK5 fusion (UniProt P04386 1-147; Q00535 1-292, limits assumed).
T5 construct: Two-hybrid construct; also called GALAdb fusion construct containing CDK5
Described as above. As to the method:
as §1, §2

For test [7], the target named is T6, GAL4db-PCNA fusion (UniProt P04386 1-147; P12004 1-261, limits assumed).
T6 construct: Two-hybrid construct; also called GALAdb fusion construct containing PCNA
Described as above. As to the method:
as §1, §2

T1 sequence (P11802 whole entry R24C): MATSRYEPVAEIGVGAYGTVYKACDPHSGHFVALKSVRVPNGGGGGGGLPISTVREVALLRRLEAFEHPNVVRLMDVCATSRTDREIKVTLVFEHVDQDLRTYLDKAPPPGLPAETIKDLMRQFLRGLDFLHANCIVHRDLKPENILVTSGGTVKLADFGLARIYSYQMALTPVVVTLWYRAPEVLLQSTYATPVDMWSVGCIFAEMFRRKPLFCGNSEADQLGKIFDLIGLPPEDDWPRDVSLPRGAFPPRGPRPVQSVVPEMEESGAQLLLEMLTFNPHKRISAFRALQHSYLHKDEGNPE
T2 sequence (P06493 whole entry): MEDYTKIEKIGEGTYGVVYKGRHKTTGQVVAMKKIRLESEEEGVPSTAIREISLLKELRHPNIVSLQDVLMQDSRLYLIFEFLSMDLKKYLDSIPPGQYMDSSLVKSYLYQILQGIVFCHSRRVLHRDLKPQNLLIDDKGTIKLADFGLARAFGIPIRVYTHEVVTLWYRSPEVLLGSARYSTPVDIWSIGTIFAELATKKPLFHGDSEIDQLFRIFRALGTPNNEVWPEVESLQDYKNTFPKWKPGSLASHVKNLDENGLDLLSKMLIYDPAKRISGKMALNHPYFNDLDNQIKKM

B1: p15 (other)
chain: MREENKGMPSGGGSDEGLATPARGLVEKVRHSWEAGADPNGVNRFGRRAIQVMMMGSARVAELLLLHGAEPNCADPATLTRPVHDAAREGFLDTLVVLHRAGARLDVRDAWGRLPVDLAEERGHRDVAGYLRTATGD
notes: Untagged p15: endogenous in HaCaT human keratinocytes or overexpressed in Sf9 cells (lysate); also called human p15; protein of approx. 15 kDa
Regarding B1, the binding result in test [1], in test [2] and in test [3] was “no binding” throughout.

B2: GAL4ad-p16 fusion (other, not shown: large carriers)
chain: MEPAAGSSMEPSADWLATAAARGRVEEVRALLEAGALPNAPNSYGRRPIQVMMMGSARVAELLLLHGAEPNCADPATLTRPVHDAAREGFLDTLVVLHRAGARLDVRDAWGRLPVDLAEELGHRDVARYLRAAAGGTRGSNHARIDAAEGPSDIPD
notes: Two-hybrid construct in yeast YPB2; also called GALAad-p16
B2: the binding result in test [4], in test [5], in test [6] and in test [7] was “no binding” throughout.

B3: p16 (other)
chain: B2 chain
notes: also called human p16
With B3, the binding result in test [1] was “no binding”.
